The results in this text go back to publication PMC3489827 (PLoS ONE, 2012).

The target of test [1] is HeV-G globular head domain (174–602) (Hendra virus) (UniProt O89343). Kind of test: crystal structure.
The next test addresses T1, Ephrin-B2 (S27-D167) (UniProt P52799 27-167).
T1 construct: also called ephrin-B2 receptor; not shown: Fc, C-terminal, cleaved
T1 sequence (looked up): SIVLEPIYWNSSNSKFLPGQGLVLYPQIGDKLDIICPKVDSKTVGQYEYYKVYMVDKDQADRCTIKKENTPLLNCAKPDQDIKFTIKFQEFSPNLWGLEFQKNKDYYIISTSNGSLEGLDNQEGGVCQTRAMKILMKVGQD
Kind of test: crystal structure. The settings on record: both partners purified.

“HeV-G globular head domain (174–602) (from UniProt O89343 174-602) (domain or fragment)” gave a stoichiometry N in test [1] of 2.

B1: HeV-G globular head domain (174–602) (domain or fragment)
chain: ISQGVSDLVGLPNQICLQKTTSTILKPRLISYTLPINTREGVCITDPLLAVDNGFFAYSHLEKIGSCTRGIAKQRIIGVGEVLDRGDKVPSMFMTNVWTPPNPSTIHHCSSTYHEDFYYTLCAVSHVGDPILNSTSWTESLSLIRLAVRPKSDSGDYNQKYIAITKVERGKYDKVMPYGPSGIKQGDTLYFPAVGFLPRTEFQYNDSNCPIIHCKYSKAENCRLSMGVNSKSHYILRSGLLKYNLSLGGDIILQFIEIADNRLTIGSPSKIYNSLGQPVFYQASYSWDTMIKLGDVDTVDPLRVQWRNNSVISRPGQSQCPRFNVCPEVCWEGTYNDAFLIDRLNWVSAGVYLNSNQTAENPVFAVFKDNEILYQVPLAEDDTNAQKTITDCFLLENVIWCISLVEIYDTGDSVIRPKLFAVKIPAQCS
In the case of B1, the “stoichiometry N” value with Ephrin-B2 (S27-D167) was 1.

The term stoichiometry N denotes a count of units in the complex or per binding partner.
